Test results published in paper doi:10.1101/2024.04.22.590578.

Legend:
Assay in all cases: crystal structure
[1] = molecular target: SARS-CoV-2 M^pro G15S (SARS-CoV-2)
[2] = molecular target: SARS-CoV-2 M^pro K90R (SARS-CoV-2)
[3] = molecular target: SARS-CoV-2 M^pro M49I (SARS-CoV-2)
[4] = molecular target: SARS-CoV-2 M^pro P132H (SARS-CoV-2)
[5] = molecular target: SARS-CoV-2 M^pro S46F (SARS-CoV-2)
[6] = molecular target: SARS-CoV-2 M^pro V186F (SARS-CoV-2)
[7] = molecular target: SARS-CoV-2 M^pro Y54C (SARS-CoV-2)

SARS-CoV-2 M^pro G15S (enzyme)
stoichiometry N [1]: 2

SARS-CoV-2 M^pro K90R (enzyme)
stoichiometry N [2]: 2

SARS-CoV-2 M^pro M49I (enzyme)
stoichiometry N [3]: 2

SARS-CoV-2 M^pro P132H (enzyme)
stoichiometry N [4]: 2

SARS-CoV-2 M^pro S46F (enzyme)
stoichiometry N [5]: 2

SARS-CoV-2 M^pro V186F (enzyme)
stoichiometry N [6]: 2

SARS-CoV-2 M^pro Y54C (enzyme)
stoichiometry N [7]: 2
